Experimental data: patent US20030068675, “Position dependent recognition of GNN nucleotide triplets by zinc fingers” (published 2003)

Tests used:
Assay in all cases: EMSA
Details in all cases: tags: MBP fusion
ZFP SBS#1292 = molecular target: T1, ZFP SBS#1292 (synthetic)
T1 chain: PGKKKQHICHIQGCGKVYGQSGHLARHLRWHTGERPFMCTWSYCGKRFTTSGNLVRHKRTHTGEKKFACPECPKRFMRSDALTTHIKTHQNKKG
How it was run: (§1)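 Purified ZFP was titrated against labeled double-stranded target (1 nM or lower, at least 10-fold below expected Kd) carrying the natural binding site with flanks. Binding buffer was 10 mM Tris pH 7.5, 100 mM KCl, 1 mM MgCl2, 0.1 mM ZnCl2, 5 mM DTT, 10% glycerol, 0.02% BSA, with equilibration for at least 45 min. Bound and free target were separated on a 10% polyacrylamide gel.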

ZFP SBS#1270 = ZFP SBS#1270 (synthetic)
ZFP SBS#1270 (synthetic), sequence (chain, as listed by the source): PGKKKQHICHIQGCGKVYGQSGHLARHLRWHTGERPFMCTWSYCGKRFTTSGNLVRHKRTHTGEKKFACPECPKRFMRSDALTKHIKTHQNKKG
How it was run: as §1

ZFP SBS#1306 = molecular target: T2, ZFP SBS#1306 (synthetic)
T2 chain: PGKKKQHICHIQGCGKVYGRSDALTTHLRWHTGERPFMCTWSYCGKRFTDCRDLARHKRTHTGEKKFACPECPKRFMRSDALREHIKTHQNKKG
How it was run: as §1

ZFP SBS#1241 = molecular target: T3, ZFP SBS#1241 (synthetic)
T3 chain: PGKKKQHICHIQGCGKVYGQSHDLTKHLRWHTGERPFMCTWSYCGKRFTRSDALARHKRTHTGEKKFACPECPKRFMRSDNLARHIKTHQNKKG
How it was run: as §1

ZFP SBS#1279 = ZFP SBS#1279 (synthetic)
How it was run: as §1

ZFP SBS#739 = molecular target: T4, ZFP SBS#739 (synthetic)
T4 chain: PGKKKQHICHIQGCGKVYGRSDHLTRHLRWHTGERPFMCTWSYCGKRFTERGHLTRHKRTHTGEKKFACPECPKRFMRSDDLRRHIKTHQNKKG
How it was run: as §1

ZFP SBS#526 = molecular target: T5, ZFP SBS#526 (synthetic)
T5 chain: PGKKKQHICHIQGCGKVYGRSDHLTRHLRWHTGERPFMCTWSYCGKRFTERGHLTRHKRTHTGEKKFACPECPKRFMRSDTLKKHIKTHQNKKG
How it was run: as §1

ZFP SBS#1293 = molecular target: T6, ZFP SBS#1293 (synthetic)
T6 chain: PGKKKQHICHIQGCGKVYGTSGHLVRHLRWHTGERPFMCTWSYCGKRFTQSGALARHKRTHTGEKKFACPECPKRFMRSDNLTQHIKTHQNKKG
How it was run: as §1

ZFP SBS#1294 = ZFP SBS#1294 (synthetic)
ZFP SBS#1294 (synthetic), sequence (chain, as listed by the source): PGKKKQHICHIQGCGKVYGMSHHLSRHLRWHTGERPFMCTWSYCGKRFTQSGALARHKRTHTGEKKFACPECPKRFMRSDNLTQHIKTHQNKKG
How it was run: as §1

ZFP SBS#1266 = molecular target: T7, ZFP SBS#1266 (synthetic)
T7 chain: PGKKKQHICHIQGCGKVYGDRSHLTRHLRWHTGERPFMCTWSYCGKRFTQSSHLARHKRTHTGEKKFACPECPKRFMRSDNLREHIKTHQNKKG
How it was run: as §1

ZFP SBS#1288 = molecular target: T8, ZFP SBS#1288 (synthetic)
T8 chain: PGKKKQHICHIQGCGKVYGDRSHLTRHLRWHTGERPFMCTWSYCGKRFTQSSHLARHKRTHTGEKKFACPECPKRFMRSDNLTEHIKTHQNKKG
How it was run: as §1

ZFP SBS#1291 = ZFP SBS#1291 (synthetic)
ZFP SBS#1291 (synthetic), sequence (chain, as listed by the source): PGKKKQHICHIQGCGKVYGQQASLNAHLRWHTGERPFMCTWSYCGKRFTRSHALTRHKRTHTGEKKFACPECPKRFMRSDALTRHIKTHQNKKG
How it was run: as §1

ZFP SBS#1290 = ZFP SBS#1290 (synthetic)
ZFP SBS#1290 (synthetic), sequence (chain, as listed by the source): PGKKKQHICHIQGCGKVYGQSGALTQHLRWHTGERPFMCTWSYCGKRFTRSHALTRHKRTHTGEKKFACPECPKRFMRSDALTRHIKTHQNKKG
How it was run: as §1

ZFP SBS#1289 = ZFP SBS#1289 (synthetic)
ZFP SBS#1289 (synthetic), sequence (chain, as listed by the source): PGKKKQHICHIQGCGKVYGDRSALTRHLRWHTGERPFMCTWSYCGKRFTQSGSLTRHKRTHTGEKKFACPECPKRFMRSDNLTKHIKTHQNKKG
How it was run: as §1

ZFP SBS#1267 = ZFP SBS#1267 (synthetic)
ZFP SBS#1267 (synthetic), sequence (chain, as listed by the source): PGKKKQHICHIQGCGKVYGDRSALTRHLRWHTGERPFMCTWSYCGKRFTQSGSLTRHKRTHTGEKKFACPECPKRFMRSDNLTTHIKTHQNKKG
How it was run: as §1

ZFP SBS#1297 = ZFP SBS#1297 (synthetic)
ZFP SBS#1297 (synthetic), sequence (chain, as listed by the source): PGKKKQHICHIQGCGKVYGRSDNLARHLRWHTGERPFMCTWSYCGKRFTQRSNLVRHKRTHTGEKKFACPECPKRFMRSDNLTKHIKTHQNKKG
How it was run: as §1

ZFP SBS#1276 = molecular target: T9, ZFP SBS#1276 (synthetic)
T9 chain: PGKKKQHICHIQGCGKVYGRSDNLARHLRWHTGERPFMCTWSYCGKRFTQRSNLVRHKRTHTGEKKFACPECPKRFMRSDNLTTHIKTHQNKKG
How it was run: as §1

ZFP SBS#1287 = molecular target: T10, ZFP SBS#1287 (synthetic)
T10 chain: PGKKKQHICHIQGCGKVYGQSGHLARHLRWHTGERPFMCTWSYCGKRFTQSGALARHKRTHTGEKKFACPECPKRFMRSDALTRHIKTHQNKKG
How it was run: as §1

ZFP SBS#1298 = ZFP SBS#1298 (synthetic)
ZFP SBS#1298 (synthetic), sequence (chain, as listed by the source): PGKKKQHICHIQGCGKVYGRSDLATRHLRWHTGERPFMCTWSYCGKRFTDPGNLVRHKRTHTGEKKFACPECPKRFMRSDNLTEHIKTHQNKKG
How it was run: as §1

ZFP SBS#1239 = molecular target: T11, ZFP SBS#1239 (synthetic)
T11 chain: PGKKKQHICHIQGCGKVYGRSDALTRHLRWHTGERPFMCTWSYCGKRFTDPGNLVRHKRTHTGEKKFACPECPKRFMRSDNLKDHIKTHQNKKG
How it was run: as §1

ZFP SBS#504 = molecular target: T12, ZFP SBS#504 (synthetic)
T12 chain: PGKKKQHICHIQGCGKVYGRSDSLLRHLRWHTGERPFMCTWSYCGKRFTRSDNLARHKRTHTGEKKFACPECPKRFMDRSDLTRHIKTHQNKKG
How it was run: as §1

ZFP SBS#503 = molecular target: T13, ZFP SBS#503 (synthetic)
T13 chain: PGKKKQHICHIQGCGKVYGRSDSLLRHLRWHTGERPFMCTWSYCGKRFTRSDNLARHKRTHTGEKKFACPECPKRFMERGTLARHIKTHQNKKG
How it was run: as §1

ZFP SBS#440 = molecular target: T14, ZFP SBS#440 (synthetic)
T14 chain: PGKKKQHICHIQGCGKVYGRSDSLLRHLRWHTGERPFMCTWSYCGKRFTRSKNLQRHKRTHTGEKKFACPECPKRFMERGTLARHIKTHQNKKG
How it was run: as §1

ZFP SBS#505 = molecular target: T15, ZFP SBS#505 (synthetic)
T15 chain: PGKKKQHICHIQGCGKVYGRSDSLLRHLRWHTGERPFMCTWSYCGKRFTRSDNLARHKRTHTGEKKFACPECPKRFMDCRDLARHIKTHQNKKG
How it was run: as §1

ZFP SBS#1282 = molecular target: T16, ZFP SBS#1282 (synthetic)
T16 chain: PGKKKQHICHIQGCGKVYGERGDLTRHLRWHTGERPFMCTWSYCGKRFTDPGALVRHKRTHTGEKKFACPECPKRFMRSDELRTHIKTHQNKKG
How it was run: as §1

ZFP SBS#1295 = molecular target: T17, ZFP SBS#1295 (synthetic)
T17 chain: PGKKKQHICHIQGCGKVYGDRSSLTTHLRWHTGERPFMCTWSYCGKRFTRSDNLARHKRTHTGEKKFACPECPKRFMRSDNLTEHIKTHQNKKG
How it was run: as §1

ZFP SBS#1296 = molecular target: T18, ZFP SBS#1296 (synthetic)
T18 chain: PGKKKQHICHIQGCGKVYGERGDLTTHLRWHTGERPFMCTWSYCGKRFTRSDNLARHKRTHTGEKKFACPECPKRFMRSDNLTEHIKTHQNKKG
How it was run: as §1

ZFP SBS#1273 = molecular target: T19, ZFP SBS#1273 (synthetic)
T19 chain: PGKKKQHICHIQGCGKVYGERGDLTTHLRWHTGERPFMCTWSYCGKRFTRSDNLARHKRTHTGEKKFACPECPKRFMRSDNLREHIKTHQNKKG
How it was run: as §1

ZFP SBS#1272 = molecular target: T20, ZFP SBS#1272 (synthetic)
T20 chain: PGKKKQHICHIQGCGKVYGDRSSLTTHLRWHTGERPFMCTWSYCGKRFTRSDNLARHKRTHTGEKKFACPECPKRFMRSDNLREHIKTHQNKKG
How it was run: as §1

ZFP SBS#1252 = molecular target: T21, ZFP SBS#1252 (synthetic)
T21 chain: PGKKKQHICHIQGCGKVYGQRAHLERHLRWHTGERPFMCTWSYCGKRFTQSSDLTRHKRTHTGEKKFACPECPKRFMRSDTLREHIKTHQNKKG
How it was run: as §1

ZFP SBS#1302 = molecular target: T22, ZFP SBS#1302 (synthetic)
T22 chain: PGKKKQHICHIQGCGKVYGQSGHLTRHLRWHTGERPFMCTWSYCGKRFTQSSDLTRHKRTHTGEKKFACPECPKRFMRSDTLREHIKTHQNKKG
How it was run: as §1

ZFP SBS#1300 = ZFP SBS#1300 (synthetic)
ZFP SBS#1300 (synthetic), sequence (chain, as listed by the source): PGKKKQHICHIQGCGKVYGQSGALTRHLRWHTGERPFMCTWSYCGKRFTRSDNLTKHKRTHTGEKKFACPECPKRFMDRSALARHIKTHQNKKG
How it was run: as §1

ZFP SBS#1248 = molecular target: T23, ZFP SBS#1248 (synthetic)
T23 chain: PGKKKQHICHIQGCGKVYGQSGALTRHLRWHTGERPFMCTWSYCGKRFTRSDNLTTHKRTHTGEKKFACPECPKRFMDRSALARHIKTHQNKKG
How it was run: as §1

B1: TTGGATGGA (dsDNA)
DNA 1: TTGGATGGA
DNA 2: TCCATCCAA
Kd (ZFP SBS#1292): 4.12 nM
Kd (ZFP SBS#1270): 0.4 nM

B2: CTGGCCTTG (dsDNA)
DNA 1: CTGGCCTTG
DNA 2: CAAGGCCAG
Kd (ZFP SBS#1306): 2.29 nM

B3: GAGGTGTCA (dsDNA)
DNA 1: GAGGTGTCA
DNA 2: TGACACCTC
Kd (ZFP SBS#1241): 0.027 nM
Kd (ZFP SBS#1279): 0.025 nM

B4: GCGGGCGGGC (dsDNA)
DNA 1: GCGGGCGGGC
DNA 2: GCCCGCCCGC
Kd (ZFP SBS#739): 16.5 nM
Kd (ZFP SBS#526): 8 nM

B5: AAGGTAGGT (dsDNA)
DNA 1: AAGGTAGGT
DNA 2: ACCTACCTT
Kd (ZFP SBS#1293): 0.457 nM
Kd (ZFP SBS#1294): 2.75 nM

B6: CAGGGTGGC (dsDNA)
DNA 1: CAGGGTGGC
DNA 2: GCCACCCTG
Kd (ZFP SBS#1266): 6.1 nM
Kd (ZFP SBS#1288): 4.1 nM

B7: GTGGTGATA (dsDNA)
DNA 1: GTGGTGATA
DNA 2: TATCACCAC
Kd (ZFP SBS#1291): 20.6 nM
Kd (ZFP SBS#1290): 24.1 nM

B8: TAGGCAGTC (dsDNA)
DNA 1: TAGGCAGTC
DNA 2: GACTGCCTA
Kd (ZFP SBS#1289): 1.37 nM
Kd (ZFP SBS#1267): 6 nM

B9: TAGGAAGAG (dsDNA)
DNA 1: TAGGAAGAG
DNA 2: CTCTTCCTA
Kd (ZFP SBS#1297): 0.05 nM
Kd (ZFP SBS#1276): 0.685 nM

B10: GTGGTAGGA (dsDNA)
DNA 1: GTGGTAGGA
DNA 2: TCCTACCAC
Kd (ZFP SBS#1287): 0.152 nM

B11: CAGGACGTG (dsDNA)
DNA 1: CAGGACGTG
DNA 2: CACGTCCTG
Kd (ZFP SBS#1298): 0.05 nM
Kd (ZFP SBS#1239): 0.144 nM

B12: GCCGAGGTGC (dsDNA)
DNA 1: GCCGAGGTGC
DNA 2: GCACCTCGGC
Kd (ZFP SBS#504): 25 nM
Kd (ZFP SBS#503): 50 nM
Kd (ZFP SBS#440): 40 nM
Kd (ZFP SBS#505): 65 nM

B13: TCGGTCGCC (dsDNA)
DNA 1: TCGGTCGCC
DNA 2: GGCGACCGA
Kd (ZFP SBS#1282): 74.1 nM

B14: CAGGAGTCC (dsDNA)
DNA 1: CAGGAGTCC
DNA 2: GGACTCCTG
Kd (ZFP SBS#1295): 0.116 nM
Kd (ZFP SBS#1296): 37 nM
Kd (ZFP SBS#1273): 0.1 nM
Kd (ZFP SBS#1272): 0.04 nM

B15: CCGGCTGGA (dsDNA)
DNA 1: CCGGCTGGA
DNA 2: TCCAGCCGG
Kd (ZFP SBS#1252): 0.153 nM
Kd (ZFP SBS#1302): 0.05 nM

B16: GTCTAGGTA (dsDNA)
DNA 1: GTCTAGGTA
DNA 2: TACCTAGAC
Kd (ZFP SBS#1300): 0.46 nM
Kd (ZFP SBS#1248): 5.14 nM
